Laboratory results published in patent US8962569B2, “Compositions comprising spp24 peptide fragments” (The Regeants of the University of California, priority 2010, dated 2015).

How the values were obtained:
BMP-2 [1] = target: T1, BMP-2 (Homo sapiens, UniProt P12643); conditions: Behnam, 2005; cited from earlier work
T1 sequence (P12643 283-396): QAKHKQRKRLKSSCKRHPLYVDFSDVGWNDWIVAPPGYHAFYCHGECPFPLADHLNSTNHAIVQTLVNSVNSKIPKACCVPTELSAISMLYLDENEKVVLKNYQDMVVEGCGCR

BMP-2 [2] = target: T1, BMP-2; conditions: cited from earlier work
A549 = conditions: Feeley, 2006; cited from earlier work
A549 cells [3] = assay: Histologic and histomorphometric analysis of A549 tumors (subcutaneous and tibiae); format: in vivo, SCID mice
Description: (§1) Forty, eight-week-old male SCID mice (weight 23.5 to 29.1 g, mean 27.1 g) were housed under pathogen-free conditions in accordance with the protocol approved by the Chancellor's Animal Research Committee (ARC) at the University of California, Los Angeles. There were four experimental groups in this study, and each group underwent implantation of cells in both a subcutaneous model and an intra-tibial injection. Group I animals received A549 cells alone as a control group. […] Group III received an A549 cells+spp24 (1000 μg). […] There were 10 animals in each group.
Animals were killed at 8 weeks (or earlier if required by an excessive tumor size) and both the soft tissue tumor and the hind limb were harvested for histological analysis. Soft tissue tumors were fixed in 10% buffered formalin. The tibias were fixed in 10% buffered formalin followed by decalcification in a solution of 10% EDTA for 2 weeks at room temperature with gentle stirring. Longitudinal sections of the proximal tibia were prepared and stained with H&E. For histologic and histomorphometric analyses, all microscopic slides were scanned with a ScanScope GL (Aperio Technologies, Inc., Vista, Calif.) equipped with a 20× objective. The following parameters were considered in the qualitative analysis: amount of tumor cells between cortices from the proximal tibia; anterior and posterior cortical destruction and remodeling; new bone formation within the medullary canal; and anterior/posterior extension of bone formation outside the medullary canal. These histologic findings were graded with the following scale: 0 (none), 1 (mild), 2 (moderate), 3 (intense). Bone volume and tumor volume, expressed as a percentage of total tissue volume (% BV/TV and % TuV/TV, respectively) were quantified in whole-slide images using Spectrum software (Aperio Technologies, Inc. Vista, Calif.).

[4] = tested on: A549 human non-small cell lung cancer cells; assay: A549 cell proliferation assay (Quick Cell Proliferation Assay); format: cell-based; conditions: 48 h
Protocol: The human non-small cell lung cancer (NSCLC) cell line A549 was used in this study (ATCC, Manassas, Va., USA). A549 cells were maintained in DMEM with 10% FBS and antibiotics (Fisher scientific, Pittsburgh, Pa.) in a humidified incubator with 5% CO2 at 37° C. Cells were not used beyond 10 passages. Cells were plated in serum free medium at a density of 10,000 cells/well and allowed to attach for 24 h. […] Recombinant spp24 was prepared as described previously (Murray E J B, et al., Connect Tiss Res 2007; 48:1-8) and added in serum-free media to final concentrations of 10, 25, 50, 75 μg/ml. Cells were incubated for 48 h before cell proliferation was assessed using Quick Cell Proliferation Assay (BioVision, Mountain View, Calif., USA) according to manufacturer's recommendations. Results were reported as a percentage compared with untreated cells.

[5] = Proteolysis of recombinant spp24 by MC3T3-E1 cell extracts (SDS-PAGE, anti-His6 Western blot); format: in vitro ADME, mouse; conditions: 37° C.; for time to essentially complete degradation of His6-spp24: presence of 4 mM calcium, MC3T3-E1 cell extracts
Protocol: MC3T3-E1 mouse preosteoblastic cells were cultured to confluence, harvested by trypsinization, pelleted by centrifugation, and suspended in digestion buffer (100 mM HEPES-HCl, pH 7.5, 12.5 mM KCl, 6.25 mM (3-mercaptoethanol, and 0.2% Triton X-100) plus or minus 4 mM CaCl2 at a protein concentration of 2.4 mg/ml. Recombinant spp24 (residues 23 to 204) was exhaustively dialyzed vs. water, lyophilized, and resuspended at 1 mg/ml in digestion buffer (plus or minus 4 mM CaCl2). Equal volumes of cell extract and spp24 were combined, and incubated at 37° C. for 0 to 24 hours. At the intervals indicated, 4 μl aliquots equivalent to 2 μg spp24 were removed, subjected to SDS-PAGE, and Western blotted using antibody directed against the His6 tag as outlined in detail above.

A549 cells [6] = assay: Subcutaneous implantation of A549 cells and direct measurement of tumor size; format: in vivo, SCID mice; conditions: 8 weeks after co-injection with A549 cells; rhBMP-2 10 μg, spp24 1000 μg; cells alone 127.4±117.5; mean±SE per method
Description: as §1

[7] = Stability of IMAC-purified His6-spp24 on frozen storage (2D SDS-PAGE); format: physicochemical; conditions: stored frozen (−20° C., 3 months) in 8 M urea in the presence of protease inhibitors
Protocol: The proteins in representative fractions containing His6-spp24 and its degradation products were separated by 2D SDS-PAGE by the method of O'Farrell (O'Farrell P. H., J. Biol. Chem., 250, 4007-4021 (1975)) (Nancy Kendrick, Ph.D., Kendrick Laboratories, Madison, Wis.) (Behnam, 2005, Behnam, 2006; Behnam, 2002; and Behnam and Murray, 2005). These fractions had been stored at −20° C. for 3 months in urea buffer plus protease inhibitors, resulting in the slow accumulation of degradation products similar to those previously reported (Urist, 1987) that are not abundant in freshly-prepared fractions. The gel was stained with Coomassie Brilliant Blue, and the three major spots of the appropriate molecular weight (<24 kDa) were selected, excised, eluted, reduced in 5% β-mercaptoethanol, alkylated, trypsin digested, and subjected to peptide mass fingerprint analysis by MALDI/ToF MS (Mary Ann Gawinowicz, Ph.D., Protein Chemistry Core Facility, Howard Hughes Medical Institute, Columbia University, New York, N.Y.) to verify their identities and structures (Behnam, 2005, Behnam, 2006, Behnam, 2002; and Behnam and Murray, 2005). Methionines were not oxidized. Peptides with a mass [M+H^+]>1000 Da were analyzed. The peptide fingerprint was compared to those in the SWISS-PRO and NCBI databanks (Behnam, 2005, Behnam, 2006; Behnam, 2002; and Behnam and Murray, 2005). […]

A549 cells [8] = assay: Intratibial implantation of A549 cells and radiographic analysis; format: in vivo, SCID mice; conditions: 8 weeks
Description: as §1

[9] = tibiae, grade 0 (none) to 3 (intense), mean

Q: With “BBP: synthetic cyclic 19 amino acid peptide of the TRH1 domain of bovine spp24, CRSTVRMSAEQVQNVWVRC (SEQ ID NO: 8) [reference compound]” as the molecule, how does the “binding of BMP-2” value (BMP-2 [1]) read?
A: specifically binds BMP-2

Q: And the “effect on BMP-2-induced ectopic bone formation in vivo” value (BMP-2 [2]; Behnam, 2005)?
A: enhances the rate and magnitude of BMP-2-induced ectopic bone formation in vivo

B1: noggin: an inhibitor of BMPs (protein, UniProt Q13253 28-232, looked up)
Noggin: QHYLHIRPAPSDNLPLVDLIEHPDPIFDPKEKDLNETLLRSLLGGHYDPGFMATSPPEDRPGGGGGAAGGAEDLAELDQLLRQRPSGAMPSEIKGLEFSEGLAQGKKQRLSKKLRRKLQMWLWSQTFCPVLYAWNDLGSRFWPRYVKVGSCFSKRSCSVPEGMVCKPSKSVHLTVLRWRCQRRGGQRCGWIPIQYPIISECKCSC
Q: Which “effect on tumor growth” value (A549) does the source give for B1 here?
A: reduce tumor growth

B2: spp24: recombinant His6-tagged bovine secreted phosphoprotein-24 kDa, residues 24 to 203 (SEQ ID NO:1), expressed in E. coli (protein)
chain: MHHHHHHFPVYDYDPASLKEALSASVAKVNSQSLSPYLFRAFRSSVKRVNALDEDSLTMDLEFRIQETTCRRESEADPATCDFQRGYHVPVAVCRSTVRMSAEQVQNVWVRCHWSSSSGSSSSEEMFFGDILGSSTSRNSYLLGLTPDRSRGEPLYEPSREMRRNFPLGNRRYSNPWPRARVNPGFE
modifications: N-terminal Met-His6 tag; Synthetic spp24
Q: Which results are given for B2?
A: % TuV/TV (tumor volume/total volume) (A549 cells [3]; longitudinal section of the proximal tibia at midline, mean): insufficient; tumor cells in histological specimens (A549 cells [3]; subcutaneous and intratibial sites, 8 weeks): only a few scattered tumor cells; % BV/TV (bone volume/total volume) (A549 cells [3]; tibia section, mean): insufficient; Anterior cortex destruction (2) (A549 cells [3]; [9]): 0; Extension of bone formation outside the medullary canal (5) (A549 cells [3]; [9]): 0; New bone formation within the medullary canal (4) (A549 cells [3]; [9]): 0; Posterior cortex destruction (3) (A549 cells [3]; [9]): 0; Amount of tumor cells between cortices (1) (A549 cells [3]; tibiae, grade 0 (none), 1 (mild), 2 (moderate), 3 (intense), mean): 0; effect on A549 cell proliferation ([4]; agent alone, serum-free media, rhBMP-2 0-500 ng/ml, spp24 10-75 μg/ml): slight dose-dependent inhibition of proliferation; effect of spp24 on BMP-stimulated A549 proliferation ([4]; spp24 added to the BMP treatment): attenuation of the BMP affect at all doses; effect on BMP-2 induced bone formation (BMP-2 [2]; ectopic bone forming assay (Sintuu, 2008)): strongly inhibits BMP-2 induced bone formation; degradation of His6-spp24 by MC3T3-E1 cell extracts ([5]; absence of added calcium, 0 to 24 hours): essentially no degradation was observed until 24 hr; time to essentially complete degradation of His6-spp24 [5]: ≤ 2 h; time to essentially complete degradation of His6-spp24 ([5]; listed as His6-spp24): about 2 hours; subcutaneous tumor volume (A549 cells [6]): 12.6±21.6 mm3; susceptibility to proteolysis on storage [7]: highly susceptible to proteolysis; animals with minimal new bone formation (A549 cells [8]): three of ten; average radiographic score (A549 cells [8]; score 0 normal to 3 obliteration of two cortices, cells alone 2.1): 0.5±0.6
